Results as given in CN115521379A (NANJING JISHENG AOMA BIOLOGICAL PHARMACEUTICAL CO LTD, dated 2022).
Where a chain is given by its changes, count along the chain named. In names and notes the source's numbering stands. Blank lines part the entries; values can stand above or below the binder they belong to.

Tests used:
PD-1蛋白 [1] = target: T1, PD-1蛋白 (human, UniProt Q15116 25-167, limits assumed); assay: SPR (Biacore T200), antibody captured by anti-human Fc, PD-1 injected
T1 construct: Recombinant PD-1 protein used in ELISA, SPR and BLI; also called PD-1[B]; (biotinylated)
T1 sequence (Q15116 25-167 limits assumed): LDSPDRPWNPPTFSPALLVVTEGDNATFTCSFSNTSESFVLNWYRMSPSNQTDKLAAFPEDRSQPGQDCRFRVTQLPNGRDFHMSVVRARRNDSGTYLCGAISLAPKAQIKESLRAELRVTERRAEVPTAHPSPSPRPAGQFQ

PD-1蛋白 [2] = target: T1, PD-1蛋白; assay: binding ELISA on coated PD-1 protein
PD-1蛋白 [3] = target: T1, PD-1蛋白; assay: competition ELISA: PD-L1 coated, biotinylated PD-1 0.5 ug/mL, antibody titrated

- Kd (PD-1蛋白 [1]): 89.5 nM
- koff (PD-1蛋白 [1]): 0.0105 s⁻¹
- kon (PD-1蛋白 [1]): 118000 M⁻¹ s⁻¹
- EC50 (PD-1蛋白 [2]): 0.192 nM
B1: hu19D4-25 (antibody, V domains shown)
VH: EVQLQESGPGLVKPSETLSLTCTVSGFSLTSYAISWIRQPPGKGLEWIGVIWTGGGTNYNSALKSRVTISKDTSKNQVSLKLSSVTAADTAVYYCARDHYGTSPFVYWGQGTLVTVSS
VL: DIVLTQTPLSLSVTPGQPASISCRASESVDNYGISFMNWFLQKPGQPPQLLIYAASNQGSGVPDRFSGSGSGTDFTLKISRVEAEDVGVYFCQQSKEVPWTFGGGTKVEIK
notes: also called 人源化抗体hu19D4-25

- IC50 (PD-1蛋白 [3]): 0.411 µg/mL
B2: WT-Agly-YTE (antibody, V domains shown)
VH: B1 VH
VL: B1 VL
notes: also called WT-Ag-YTE; WT-AGY-YTE

- IC50 (PD-1蛋白 [3]): 0.495 µg/mL
B3: 1C2-3C11-W52F-Agly-YTE (antibody, V domains shown)
VH: B1 VH with W52F, D98E
VL: B1 VL with K96L
notes: 19D4-25-1C2-3C11 with W52F and an Fc with YTE (M252Y, S254T, T256E) and N297A; The label itself is not defined in the text

- IC50 (PD-1蛋白 [3]): 0.369 µg/mL
B4: 1C2-3C11-Agly-YTE (antibody, V domains shown)
VH: B1 VH with D98E
VL: B1 VL with K96L
notes: also called 19D4-25-1C2-3C11与YTE突变、N297突变的Fc融合后得到的抗原结合蛋白

- IC50 (PD-1蛋白 [3]): 0.492 µg/mL
B5: 1C2-Agly-YTE (antibody, V domains shown)
VH: B1 VH
VL: B1 VL with K96L
notes: also called 19D4-25-1C2与YTE突变、N297突变的Fc融合后得到的抗原结合蛋白

- IC50 (PD-1蛋白 [3]): 0.543 µg/mL
B6: 3C11-Agly-YTE (antibody, V domains shown)
VH: B1 VH with D98E
VL: B1 VL
notes: also called 19D4-25-3C11与YTE突变、N297突变的Fc融合后得到的抗原结合蛋白

- IC50 (PD-1蛋白 [3]): 0.375 µg/mL
B7: 1C2-Agly (antibody, V domains shown)
VH: B1 VH
VL: B1 VL with K96L
notes: also called 19D4-25-1C2与N297突变的Fc融合后得到的抗原结合蛋白
